Paper PMC8534003, “The Chemokine-Based Peptide, CXCL9(74-103), Inhibits Angiogenesis by Blocking Heparan Sulfate Proteoglycan-Mediated Signaling of Multiple Endothelial Growth Factors” (Cancers, 2021)

Assays:
[1] = test system: human microvascular endothelial cells (HMVECs); test: xCELLigence chemotaxis assay (HMVEC migration); format: cell-based; conditions: EGF 10 ng/mL, FGF-2 30 ng/mL or VEGF165 10 ng/mL in lower chamber
Experimental: To evaluate the effect of the CXCL9-derived peptides on growth factor-induced endothelial cell migration, the xCELLigence® real-time cell analyzer (RTCA DP) system (ACEA Biosciences, Inc.; San Diego, CA, USA) was used. First, 160 µL MCDB131 medium (Gibco) supplemented with 0.4% (v/v) FCS (control medium) or 160 µL control medium with 30 ng/mL FGF-2, 10 ng/mL VEGF165 or 10 ng/mL EGF were added to the lower chamber of a cell invasion/migration (CIM)-Plate (ACEA Biosciences, Inc.). After assembly of the lower and upper chamber, 50 µL of serum-free MCDB131 medium was added in the upper wells. Following equilibration of the plate at 37 °C for 1 h, HMVECs were added in the upper chamber at 4 × 10^4 cells in 100 µL/well. CXCL9(74-103) or CXCL9(86-103) was added together with the cells in the upper compartment at a concentration of 0.3 or 3 µM. The assembled CIM-Plate was left at room temperature for 30 min to allow the cells to settle onto the membrane. Finally, the plate was placed in the instrument at 37 °C to monitor cell migration for 15 h. Cell migration from one compartment to the other was recorded (one recording every minute) as changes in electrical impedance. These changes were converted into cell indices, as a measure of cell migration.

[2] = test system: human microvascular endothelial cells (HMVECs); test: Endothelial cell proliferation assay (MTT or ATP lite); format: cell-based; conditions: EGF, VEGF165 5 ng/mL or FGF-2 3 ng/mL as single stimulus
Experimental: The ability of the CXCL9-derived peptides to inhibit growth factor-induced proliferation of endothelial cells was assessed. HMVECs were seeded at 5 × 10^3 cells/well in EBM™-2 medium containing 1% (v/v) FCS (proliferation medium). After settling of the cells, they were stimulated with EGF, VEGF165 (both 5 ng/mL) or FGF-2 (3 ng/mL) as a single stimulus or in combination with CXCL9(86-103) or CXCL9(74-103) at 0.3 or 3 µM in proliferation medium or left untreated. HMVECs were also treated with 0.3 or 3 µM of CXCL9(74-103) or 3 µM of CXCL9(86-103) alone to assess the effect of CXCL9-derived peptide treatment on spontaneous proliferation. After 3 to 4 days, a 3-(4,5-dimethylthiazol-2-yl)-2,5-diphenyl tetrazolium bromide (MTT) or ATP lite assay was performed. The ATP lite assay was performed according to the manufacturer’s instructions (Perkin Elmer, Waltham, MA). When MTT was used as substrate, the medium was replaced with 200 µL of MTT solution (RPMI without phenol red containing 0.4 g/L MTT) and the cells were incubated at 37 °C and 5% CO2 in the dark for 4 hours. Then, the MTT solution was discarded and the formed formazan crystals were dissolved in 200 µL acidic propanol [0.04 M HCl, 0.1% (v/v) NP-40 in isopropanol] under continuous shaking in the dark for 10 min. The optical densities were measured at 570 nm and 630 nm (reference wavelength).

[3] = test system: human microvascular endothelial cells (HMVECs); test: xCELLigence adhesion assay; format: cell-based; conditions: 50 ng/mL, 1 h, compared to untreated cells
Experimental: The wells of an E-plate (ACEA Biosciences, Inc.) were washed and coated with 0.1% (v/v) gelatin in phosphate-buffered saline (PBS) at 37 °C for 1 h. Following a washing step, wells were incubated with 0.1% (v/v) bovine serum albumin (BSA) in PBS at 37 °C for 1 h. After washing, 50 µL basal MCDB131 medium was added and the plate was allowed to equilibrate at 37 °C. HMVECs were harvested and seeded at 4 × 10^4 cells/well together with 50 ng/mL VEGF165 with or without 0.03, 0.3 or 3 µM of CXCL9(74-103) or 3 µM of CXCL9(86-103) in 100 µL control medium (vide supra). Real-time changes in electrical impedance depicted as cell indices, as measure for cell adhesion and spreading, were analyzed using the xCELLigence® RTCA DP System. The adhesion of HMVECs was analyzed 1 h after seeding.

[4] = fold lower affinity than FGF-2; cited from earlier work
Source text: In our present study, we wanted to explore the potential of CXCL9(74-103), a high affinity GAG-binding peptide, to interfere with angiogenesis by targeting growth factor-induced signaling cascades and associated processes. […] The obtained KD value lies within the range of the concentrations that were applied in the different in vivo and in vitro assays reported here. FGF-2-mediated proliferation, chemotaxis and sprouting in vitro was diminished by CXCL9(74-103). Also in vivo, CXCL9(74-103) treatment attenuated FGF-2-mediated neovascularization in the Matrigel plug assay. The inhibitory mechanism responsible for countering FGF-2 could be that (1) by direct interaction with FGF-2, CXCL9(74-103) can t ...

B1: VEGF165: human recombinant VEGF165 (Biolegend), stimulus (protein)
chain: MNFLLSWVHWSLALLLYLHHAKWSQAAPMAEGGGQNHHEVVKFMDVYQRSYCHPIETLVDIFQEYPDEIEYIFKPSCVPLMRCGGCCNDEGLECVPTEESNITMQIMRIKPHQGQHIGEMSFLQHNKCECRPKKDRARQENPCGPCSERRKHLFVQDPQTCKCSCKNTDSRCKARQLELNERTCRCDKPRR
enhancement of migration by growth factor alone [1]: significant enhancement of endothelial cell migration | enhancement of proliferation by growth factor alone [2]: significant enhancement of proliferation | adhesion in response to VEGF165 alone [3]: HMVECs adhered more profoundly to the substratum compared to untreated cells | affinity for heparin compared to FGF-2 [4]: 8 fold
